Literature values as cited in PMC10361579.
“And” between values parts separate entries of the source, which are not always exact repeats. Equal entries are not always repeated.

Key:
[1] = biological target: classical cadherin (X-dimer) (UniProt P12830)
[2] = biological target: classical cadherin (strand-swap dimer) (UniProt P12830)

| Substance | Kd [1] [µM] | Kd [2] |
| --- | --- | --- |
| classical cadherin (X-dimer) (from UniProt P12830) | 916 |  |
| classical cadherin (strand-swap dimer) (from UniProt P12830) |  | 64 µM and 97 µM |
